Laboratory results reported in paper PMC7005798, “Increased circulating levels of Factor H-Related Protein 4 are strongly associated with age-related macular degeneration” (Nature Communications, 2020).

Tests used:
C3b [1] = target: T1, C3b (human, UniProt P01024 23-667; P01024 749-1663); experiment: cell-based or functional assay
C3b [2] = target: T1, C3b; experiment: ELISA; solid-phase binding assay: C3b adsorbed on microtiter wells (1 ug per well); 100 nM FH or FHL-1 mixed with rising FHR-4 up to 500 nM, 4 h at room temperature in 20 mM HEPES, 130 mM NaCl, 0.05% Tween-20, pH 7.3; bound FH or FHL-1 detected with the OX23 antibody; settings: both partners purified

T1 sequence (P01024 23-667, chain 1 of 2): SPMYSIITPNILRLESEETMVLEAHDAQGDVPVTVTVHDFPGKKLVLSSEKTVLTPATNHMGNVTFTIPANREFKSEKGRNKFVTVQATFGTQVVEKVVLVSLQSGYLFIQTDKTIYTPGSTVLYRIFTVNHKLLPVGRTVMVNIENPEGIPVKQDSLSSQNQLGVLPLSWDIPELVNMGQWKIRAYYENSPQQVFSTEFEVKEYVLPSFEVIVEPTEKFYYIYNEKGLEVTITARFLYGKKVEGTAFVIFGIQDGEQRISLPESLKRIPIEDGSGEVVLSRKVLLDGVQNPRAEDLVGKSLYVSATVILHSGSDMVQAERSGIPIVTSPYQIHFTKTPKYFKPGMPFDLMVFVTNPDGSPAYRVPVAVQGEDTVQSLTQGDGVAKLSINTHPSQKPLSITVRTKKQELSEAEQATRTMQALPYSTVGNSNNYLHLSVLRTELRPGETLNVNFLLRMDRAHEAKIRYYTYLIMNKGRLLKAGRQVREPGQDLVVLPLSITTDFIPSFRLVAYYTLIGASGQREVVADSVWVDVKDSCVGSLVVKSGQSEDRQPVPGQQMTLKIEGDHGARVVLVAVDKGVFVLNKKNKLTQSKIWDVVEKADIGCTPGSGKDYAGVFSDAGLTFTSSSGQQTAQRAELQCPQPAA
T1 sequence (P01024 749-1663, chain 2 of 2): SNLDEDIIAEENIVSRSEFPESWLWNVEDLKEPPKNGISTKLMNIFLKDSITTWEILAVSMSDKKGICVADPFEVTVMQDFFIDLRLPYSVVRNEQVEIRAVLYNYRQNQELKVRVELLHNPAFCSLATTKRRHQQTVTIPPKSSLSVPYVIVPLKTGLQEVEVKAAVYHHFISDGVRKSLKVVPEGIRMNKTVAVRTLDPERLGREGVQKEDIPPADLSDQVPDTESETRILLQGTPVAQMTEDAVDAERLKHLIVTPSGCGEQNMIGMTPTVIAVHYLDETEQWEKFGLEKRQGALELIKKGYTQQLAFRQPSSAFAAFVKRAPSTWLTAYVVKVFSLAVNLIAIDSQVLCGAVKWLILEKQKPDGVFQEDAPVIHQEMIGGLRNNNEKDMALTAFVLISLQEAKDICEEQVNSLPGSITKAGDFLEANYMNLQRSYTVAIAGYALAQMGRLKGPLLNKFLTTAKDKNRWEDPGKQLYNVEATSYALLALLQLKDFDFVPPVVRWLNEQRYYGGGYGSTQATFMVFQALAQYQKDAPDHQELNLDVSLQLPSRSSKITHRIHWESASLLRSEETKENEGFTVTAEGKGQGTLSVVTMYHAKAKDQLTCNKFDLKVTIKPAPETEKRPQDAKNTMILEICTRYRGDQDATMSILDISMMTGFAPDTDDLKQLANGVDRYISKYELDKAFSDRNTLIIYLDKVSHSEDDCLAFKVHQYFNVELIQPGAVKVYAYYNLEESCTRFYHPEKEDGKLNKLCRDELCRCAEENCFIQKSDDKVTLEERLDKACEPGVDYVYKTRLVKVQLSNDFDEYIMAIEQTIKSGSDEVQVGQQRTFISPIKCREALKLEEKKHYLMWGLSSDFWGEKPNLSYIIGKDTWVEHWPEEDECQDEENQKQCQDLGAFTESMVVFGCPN

Row | Binder | inhibition of FHL-1/FI-mediated C3b α-chain cleavage in the fluid phase (blocks FHL-1 with C3b); FHR-4 up to a 5-fold molar excess over FHL-1, dose-dependent (C3b [1]) | binding result (C3b [2])
1 | Recombinant Factor H-Related Protein 4 (FHR-4), FHR-4B variant (natural protein, human, UniProt Q92496-3 20-331, looked up) EVKPCDFPEIQHGGLYYKSLRRLYFPAAAGQSYSYYCDQNFVTPSGSYWDYIHCTQDGWSPTVPCLRTCSKSDIEIENGFISESSSIYILNKEIQYKCKPGYATADGNSSGSITCLQNGWSAQPICIKFCDMPVFENSRAKSNGMRFKLHDTLDYECYDGYEISYGNTTGSIVCGEDGWSHFPTCYNSSEKCGPPPPISNGDTTSFLLKVYVPQSRVEYQCQSYYELQGSNYVTCSNGEWSEPPRCIHPCIITEENMNKNNIQLKGKSDIKYYAKTGDTIEFMCKLGYNANTSVLSFQAVCREGIVEYPRCE | 2.5 fold molar excess of FHR-4 over FHL-1 for 50% reduction | 
2 | complement factor H (FH) (natural protein, human, UniProt P08603 19-1231, looked up, complement factor H, commercially available purified protein; also called CFH; source: bought: Sigma-Aldrich, catalogue no; C5813 (purified)) EDCNELPPRRNTEILTGSWSDQTYPEGTQAIYKCRPGYRSLGNVIMVCRKGEWVALNPLRKCQKRPCGHPGDTPFGTFTLTGGNVFEYGVKAVYTCNEGYQLLGEINYRECDTDGWTNDIPICEVVKCLPVTAPENGKIVSSAMEPDREYHFGQAVRFVCNSGYKIEGDEEMHCSDDGFWSKEKPKCVEISCKSPDVINGSPISQKIIYKENERFQYKCNMGYEYSERGDAVCTESGWRPLPSCEEKSCDNPYIPNGDYSPLRIKHRTGDEITYQCRNGFYPATRGNTAKCTSTGWIPAPRCTLKPCDYPDIKHGGLYHENMRRPYFPVAVGKYYSYYCDEHFETPSGSYWDHIHCTQDGWSPAVPCLRKCYFPYLENGYNQNYGRKFVQGKSIDVACHPGYALPKAQTTVTCMENGWSPTPRCIRVKTCSKSSIDIENGFISESQYTYALKEKAKYQCKLGYVTADGETSGSITCGKDGWSAQPTCIKSCDIPVFMNARTKNDFTWFKLNDTLDYECHDGYESNTGSTTGSIVCGYNGWSDLPICYERECELPKIDVHLVPDRKKDQYKVGEVLKFSCKPGFTIVGPNSVQCYHFGLSPDLPICKEQVQSCGPPPELLNGNVKEKTKEEYGHSEVVEYYCNPRFLMKGPNKIQCVDGEWTTLPVCIVEESTCGDIPELEHGWAQLSSPPYYYGDSVEFNCSESFTMIGHRSITCIHGVWTQLPQCVAIDKLKKCKSSNLIILEEHLKNKKEFDHNSNIRYRCRGKEGWIHTVCINGRWDPEVNCSMAQIQLCPPPPQIPNSHNMTTTLNYRDGEKVSVLCQENYLIQEGEEITCKDGRWQSIPLCVEKIPCSQPPQIEHGTINSSRSSQESYAHGTKLSYTCEGGFRISEENETTCYMGKWSSPPQCEGLPCKSPPEISHGVVAHMSDSYQYGEEVTYKCFEGFGIDGPAIAKCLGEKWSHPPSCIKTDCLSLPSFENAIPMGEKKDVYKAGEQVTYTCATYYKMDGASNVTCINSRWTGRPTCRDTSCVNPPTVQNAYIVSRQMSKYPSGERVRYQCRSPYEMFGDEEVMCLNGNWTEPPQCKDSTGKCGPPPPIDNGDITSFPLSVYAPASSVEYQCQNLYQLEGNKRITCRNGQWSEPPKCLHPCVISREIMENYNIALRWTAKQKLYSRTGESVEFVCKRGYRLSSRSHTLRTTCWDGKLEYPTCAKR |  | binds
